Reference: publication PMC3526787, “Structures of Lysenin Reveal a Shared Evolutionary Origin for Pore-Forming Proteins And Its Mode of Sphingomyelin Recognition” (Structure(London, England:1993), 2012)

Biological target: the molecule itself
Test: 2D electron crystallography; lysenin in a lipid bilayer (liposomes containing SM); 2D crystals, trigonal array with space group p3, projection map at 14 Å

B1: lysenin (natural protein)
chain: MSAKAAEGYEQIEVDVVAVWKEGYVYENRGSTSVDQKITITKGMKNVNSETRTVTATHSIGSTISTGDAFEIGSVEVSYSHSHEESQVSMTETEVYESKVIEHTITIPPTSKFTRWQLNADVGGADIEYMYLIDEVTPIGGTQSIPQVITSRAKIIVGRQIILGKTEIRIKHAERKEYMTVVSRKSWPAATLGHSKLFKFVLYEDWGGFRIKTLNTMYSGYEYAYSSDQGGIYFDQGTDNPKQRWAINKSLPLRHGDVVTFMNKYFTRSGLCYDDGPATNVYCLDKREDKWILEVVG
notes: A thrombin cleavage site and six histidines follow the C terminus (printed as …); also called WT lysenin; native lysenin; source: E. coli BL21, purified (Ni-NTA IMAC, SEC)
Does B1 bind?
Result: binds
